Where a chain is given by its changes, count along the chain named. Names and notes keep the numbering of the source.
B1: canine IgGB (65) mAb with mutation A426V (antibody, part only; not given: Variable domains, not shown: another chain or arm of the molecule)
constant: ASTTAPSVFPLAPSCGSTSGSTVALACLVSGYFPEPVTVSWNSGSLTSGVHTFPSVLQSSGLYSLSSMVTVPSSRWPSETFTCNVAHPASKTKVDKPVPKRENGRVPRPPDCPKCPAPEMLGGPSVFIFPPKPKDTLLIARTPEVTCVVVDLDPEDPEVQISWFVDGKQMQTAKTQPREEQFNGTYRVVSVLPIGHQDWLKGKQFTCKVNNKALPSPIERTISKARGQAHQPSVYVLPPSREELSKNTVSLTCLIKDFFPPDIDVEWQSNGQQEPESKYRTTPPQLDEDGSYFLYSKLSVDKSRWQRGDTFICVVMHEALHNHYTQESLSHSPGK
B2: canine IgGB (65) mAb with mutation A426W (antibody, part only; not given: variable domains of unnamed mAb, not shown: another chain or arm of the molecule)
constant: B1 constant with V314W
B3: canine IgGB (65) mAb with mutation Y436C (antibody, part only; not given: Variable domains, not shown: another chain or arm of the molecule)
constant: B1 constant with V314A, Y324C
B4: canine IgGB (65) mAb with mutation Y436D (antibody, part only; not given: Variable domains, not shown: another chain or arm of the molecule)
constant: B1 constant with V314A, Y324D
B5: canine IgGB (65) mAb with mutation Y436E (antibody, part only; not given: Variable domains, not shown: another chain or arm of the molecule)
constant: B1 constant with V314A, Y324E
B6: canine IgGB (65) mAb with mutation T286I (antibody, part only; not given: Variable domains, not shown: another chain or arm of the molecule)
constant: B1 constant with T172I, V314A
B7: canine IgGB (65) mAb with mutation Y436F (antibody, part only; not given: Variable domains, not shown: another chain or arm of the molecule)
constant: B1 constant with V314A, Y324F
B8: canine IgGB (65) mAb with mutation Y436G (antibody, part only; not given: Variable domains, not shown: another chain or arm of the molecule)
constant: B1 constant with V314A, Y324G
B9: canine IgGB (65) mAb with mutation Y436I (antibody, part only; not given: variable domains of unnamed mAb, not shown: another chain or arm of the molecule)
constant: B1 constant with V314A, Y324I
B10: canine IgGB (65) mAb with mutation Y436K (antibody, part only; not given: variable domains of unnamed mAb, not shown: another chain or arm of the molecule)
constant: B1 constant with V314A, Y324K
B11: canine IgGB (65) mAb with mutation Y436L (antibody, part only; not given: variable domains of unnamed mAb, not shown: another chain or arm of the molecule)
constant: B1 constant with V314A, Y324L
B12: canine IgGB (65) mAb with mutation Y436M (antibody, part only; not given: Variable domains, not shown: another chain or arm of the molecule)
constant: B1 constant with V314A, Y324M
B13: canine IgGB (65) mAb with mutation Y436N (antibody, part only; not given: variable domains of unnamed mAb, not shown: another chain or arm of the molecule)
constant: B1 constant with V314A, Y324N
B14: canine IgGB (65) mAb with mutation Y436P (antibody, part only; not given: variable domains of unnamed mAb, not shown: another chain or arm of the molecule)
constant: B1 constant with V314A, Y324P
B15: canine IgGB (65) mAb with mutation Y436Q (antibody, part only; not given: Variable domains, not shown: another chain or arm of the molecule)
constant: B1 constant with V314A, Y324Q
B16: canine IgGB (65) mAb with mutation Y436R (antibody, part only; not given: Variable domains, not shown: another chain or arm of the molecule)
constant: B1 constant with V314A, Y324R
B17: canine IgGB (65) mAb with mutation T286K (antibody, part only; not given: Variable domains, not shown: another chain or arm of the molecule)
constant: B1 constant with T172K, V314A
B18: canine IgGB (65) mAb with mutation Y436S (antibody, part only; not given: variable domains of unnamed mAb, not shown: another chain or arm of the molecule)
constant: B1 constant with V314A, Y324S
B19: canine IgGB (65) mAb with mutation Y436T (antibody, part only; not given: Variable domains, not shown: another chain or arm of the molecule)
constant: B1 constant with V314A, Y324T
B20: canine IgGB (65) mAb with mutation Y436V (antibody, part only; not given: variable domains of unnamed mAb, not shown: another chain or arm of the molecule)
constant: B1 constant with V314A, Y324V
B21: canine IgGB (65) mAb with mutation Y436W (antibody, part only; not given: variable domains of unnamed mAb, not shown: another chain or arm of the molecule)
constant: B1 constant with V314A, Y324W
B22: canine IgGB (65) mAb with mutation T286M (antibody, part only; not given: variable domains of unnamed mAb, not shown: another chain or arm of the molecule)
constant: B1 constant with T172M, V314A

target: canine FcRn complex (FcRn-alpha subunit and beta-microglobulin), His-tagged, biotin labeled (canine); assay: SPR (Biacore), biotin-FcRn captured on SA surface, IgG flowed over, pH 6, 15 C

Binder | Kd
B1 | 9.11 nM
B2 | 3.87 nM
B3 | 8.84 nM
B4 | 12.9 nM
B5 | 5.28 nM
B6 | 6.38 nM
B7 | 9.8 nM
B8 | 9.67 nM
B9 | 8.41 nM
B10 | 6.88 nM
B11 | 4.26 nM
B12 | 9.51 nM
B13 | 7.27 nM
B14 | 668 nM
B15 | 4.74 nM
B16 | 3.83 nM
B17 | 7.04 nM
B18 | 5.97 nM
B19 | 8.65 nM
B20 | 5.56 nM
B21 | 3.87 nM
B22 | 5.23 nM

Reference: US20260139055A1
